Here are results for three substances from patent US20030187247A1.

Assay [1] concerns the target HXBc2 mature gp120 expressed by COS-1 cells (HIV-1 (HXBc2 clone)) (UniProt P04578).
Assay [2] concerns the target HXBc2 gp120 mutant NO V1/V2 (HIV-1 (HXBc2 clone of strain LAI)) (UniProt P04578). The experiment in a line: capture ELISA (D7324).
In assay [3] the target is gp120 derived from the HIV-1 strain LAI (Repligen) (HIV-1 strain LAI) (UniProt P03377). The experiment in a line: SPR (BIAcore), kon/koff.
The target is the same in assay [4]. The experiment in a line: SPR (BIAcore), gp120 immobilized.
Assay [5] concerns the target multimeric HXBc2 envelope glycoprotein complex on the transfected COS-1 cell surface (HIV-1 (HXBc2 clone)) (UniProt P04578). The assay is described as follows: Fab on transfected COS-1 cells, immunoprecipitation.
The target of assay [6] is recombinant gp120 of HIV-1 strain IIIB (HIV-1 strain IIIB) (UniProt P04578). The assay is described as follows: inhibition ELISA, free gp120 titrated against plate-bound gp120.
Assay [7] has as its target gp120 derived from the HIV-1 strain LAI (Repligen) (HIV-1 strain LAI) (UniProt P03377). The experiment in a line: BIAcore sandwich, Fab 2 on gp120 held by Fab 1; competitor (Fab 1): b6. On the technique in general: SPR reads the build-up and loss of mass on a sensor chip optically.
Assay [8] shares this target. The experiment in a line: BIAcore sandwich, Fab 2 on gp120 held by Fab 1; competitor (Fab 1): b12.
For assay [9] the target is unchanged. The experiment in a line: BIAcore sandwich, Fab 2 on gp120 held by Fab 1; competitor (Fab 1): b13.
Assay [10] has the same target. The experiment in a line: BIAcore sandwich, same Fab injected twice (negative control); competitor: b6.
Assay [11] deals with HXBc2 mature gp120 expressed by COS-1 cells (HIV-1 (HXBc2 clone)) (UniProt P04578). The assay is described as follows: Fab on radiolabeled COS-1 cells, lysis, precipitation, gel densitometry.
Assay [12] deals with gp120 derived from the HIV-1 strain LAI (Repligen) (HIV-1 strain LAI) (UniProt P03377). The experiment in a line: BIAcore sandwich, same Fab injected twice (negative control); competitor: b12.
Assay [13] deals with recombinant gp120 of HIV-1 strain IIIB (HIV-1 strain IIIB) (UniProt P04578). The assay is described as follows: SPR (BIAcore).

For Fab b6, the Ka is less than 6e+06 M⁻¹ in assay [1] and 9.7e+07 M⁻¹ in assay [3]. Further, in assay [2], the Fab/reference serum binding ratio stood at 1.48. Moreover, the koff (usually the rate constant with which the complex falls apart) in [4] is 0.00016 s⁻¹. In [4], the kon – broadly, a measure of how fast the partners come together – is 16000 M⁻¹ s⁻¹. Moreover, in assay [5], the Fab concentration at saturation is greater than 150 µg/mL. The half-inhibitory concentration (IC50) – broadly, the midpoint of a concentration-inhibition curve – in assay [6] turned out to be 1 nM. Moreover, the response (RU), background subtracted was 0 RU in assay [7], 17 RU in assay [8] and 21 RU in assay [9]. In [10], the response (RU), background was 38 RU.
On to Fab b12, for which the Ka was found to be 3e+07 M⁻¹ in assay [1] and 1.1e+08 M⁻¹ in [3]. Besides, the Fab/reference serum binding ratio in [2] came to 0.23. In assay [4], this substance registered a koff of 0.00043 s⁻¹. In addition, the kon in assay [4] stood at 45000 M⁻¹ s⁻¹. The Fab concentration at saturation in assay [5] was 100 µg/mL. Also, the IC50 in assay [6] came to 1 nM. Moreover, the response (RU), background subtracted in assay [8] came to 0 RU; in assay [9] it was 22 RU. The same substance had an excess of gp120 over gp160 immunoreacted in assay [11] greater than 50%. In addition, the response (RU), background in assay [12] is 17 RU.
Consider b12 IgG1 (antibody), for which the Ka in assay [13] is 1.3e+09 M⁻¹.
